From patent US20260055441A1, “A PCR-ELISA ANALOGOUS ANTIBODY-FREE METHOD FOR DETECTING A TARGET NUCLEIC ACID IN A SAMPLE” (UNIVERSITÄT HEIDELBERG, priority 2022, published 2026) come the findings set out here.

The target of experiment [1] is T1, latent papain P13 (Carica papaya, UniProt P00784).
T1 construct: purchased Sigma Aldrich (Munich, Germany); host or cells: Papaya latex (natural source)
T1 sequence (P00784 134-345): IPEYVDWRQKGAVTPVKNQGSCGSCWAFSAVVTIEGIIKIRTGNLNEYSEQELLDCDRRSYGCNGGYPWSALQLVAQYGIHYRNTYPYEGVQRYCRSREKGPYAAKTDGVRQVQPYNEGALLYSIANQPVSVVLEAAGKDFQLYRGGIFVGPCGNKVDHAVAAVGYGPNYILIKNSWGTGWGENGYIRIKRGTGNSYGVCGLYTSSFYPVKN
In words: Latent papain reactivation assay with thiol activators at 10 μM, rates normalized to 10 μM cysteine (FIG. 18). It is filed as biochemical. The settings on record: activator 10 μM, latent papain 1 nM, Z-Phe-Arg-AMC 2 μM; for reaction rate compared to L-cysteine: pH 7; for normalized ratio rate/rate 10 μM cysteine of substrate hydrolysis after reactivation of latent papain: well buffer pH 7, no TCEP. As for the experimental part: All following described fluorometric assays (Examples 1-3) are based on the reaction of reversibly inactivated papain (latent papain) with an activator containing either sulfur or selenium (with the exception of TCEP). Different latent papain forms, buffer compositions and activators in various concentrations were compared. Papain was hereby transferred in buffer (standard well buffer consisted of 0.1 M phosphate pH 7, 4 mM EDTA, 0.01% Brij35 and if activators contained diselenides, 1 μM TCEP) mixed with activator and substrate inside 96 well plates (without prior washing of the plates). After reactivation, active papain hydrolyses the substrate Z-Phe-Arg-AMC (2 μM) and the resulting fluorescence was tracked every minute for 2 h. The slopes of the corresponding curves were calculated for the linear portion within the first 30 minutes and the resulting reaction rates were directly compared. Resulting reaction rates directly reflect reactivation efficiencies of each activator under each reaction condition. […] After addition of activator a fraction of latent papain is immediately reactivated in rather non-stoichiometric proportions. Complete reactivation can generally only be achieved with great excess of activator. The partial reactivation with smaller activator amounts appears almost instantaneously because the resulting reaction curve show linear progression from the start except for very low activator concentrations. After reactivation, all different latent papain forms result in the same active enzyme. If different latent papain forms show different reaction rates in identical activation assays, the efficiency of reactivation with the applied activator can be deduced. The same applies for reactivation of one latent papain form with different activators or reaction conditions.
Several thiol compounds and cysteine containing peptide activators (see Example 4.1) were compared for their potential to reactivate latent papain. To this end, the thiol compounds and cysteine containing peptide activators were utilized in reactivation assays (see Example 5, 5.2.2.2, fluorometric method 2) of papain P13 (see Example 1, 1.2) with an activator concentration of 10 μM. For thiols not completely soluble in phosphate buffer pH 7 at high concentrations, the 1 mM stock solution was prepared in DMSO, resulting in 1% DMSO in the reaction mixture. In order to normalize the observed reaction rates between assays, a 10 μM cysteine sample was additionally measured in every assay and reaction rates of the examined thiols were divided through the reaction rates produced by the 10 μM cysteine standard. Additionally, a measurement with 1 mM cysteine was performed in order to achieve maximal papain activation and therefore the maximal reaction rate within the confines of the assay. The resulting normalized rates are compared in FIG. 18.
Different assays of reactivating latent papain in solution were conducted in the course of this work. Various buffer compositions, supplements, 96 well plates, substrates, activators, concentrations as well as different latent papain forms were compared. In order to get an overview of all experiments, a standard method is described in the following and variations of this method are subsequently defined. First, the well buffer was prepared (0.1 M phosphate buffer pH 7, 4 mM EDTA, 0.01% Brij35). A 1 mM TCEP solution was prepared with 3 mM NaOH in 0.1 M Tris-HCl buffer pH 8. Papain substrate (Z-Phe-Arg-AMC or Suc-Leu-Leu-Val-Tyr-AMC) was prepared as a 200 μM solution in water and transferred equally to a PCR strip. Three serial dilutions of the activating agent with well buffer were used in the different experiments and the corresponding pipetting schemes are shown in Table 9. Papain was diluted to 0.1 μM with well buffer and transferred equally to a PCR strip. After preparation of the abovementioned solutions, TCEP (1 mM solution) was added to well buffer to yield a final TCEP concentration of 1.1 μM. […]

In experiment [2] the target is T1, latent papain P13. In words: Screening of peptide-based papain activators, rates normalized to cysteine ethyl ester (FIG. 19, FIG. 20). The format is biochemical. As to conditions: for normalized ratio rate/rate cysteine ethyl ester (CysEE): activator 50 nM, latent papain P13 1 nM, substrate 2 μM, pH 7. The procedure:
L-Cysteine ethyl ester was utilized in identical peptide concentrations as a standard in order to calculate normalized reaction rates for each synthesized peptide.
[…] The assays were conducted in well buffer with 1 nM latent papain P13. In order to give a clear overview, only the normalized rates for activator concentrations of 50 nM are depicted and compared.
Additionally, 1 μM TCEP was added to each well of the cysteine concentration series in order to examine the influence of TCEP on reaction rates of thiols.
Different assays of reactivating latent papain in solution were conducted in the course of this work. Various buffer compositions, supplements, 96 well plates, substrates, activators, concentrations as well as different latent papain forms were compared. In order to get an overview of all experiments, a standard method is described in the following and variations of this method are subsequently defined. First, the well buffer was prepared (0.1 M phosphate buffer pH 7, 4 mM EDTA, 0.01% Brij35). A 1 mM TCEP solution was prepared with 3 mM NaOH in 0.1 M Tris-HCl buffer pH 8. Papain substrate (Z-Phe-Arg-AMC or Suc-Leu-Leu-Val-Tyr-AMC) was prepared as a 200 μM solution in water and transferred equally to a PCR strip. Three serial dilutions of the activating agent with well buffer were used in the different experiments and the corresponding pipetting schemes are shown in Table 9. Papain was diluted to 0.1 μM with well buffer and transferred equally to a PCR strip. […] 342.4 μL of TCEP containing well buffer was transferred to each well, followed by 3.8 μL papain solution. After mixing, 30 μL of the prepared activator concentrations (see Table 9) were added and mixed. In the last step, 3.8 μL of the substrate solution was added and mixed, to yield a final well composition of 0.1 M phosphate buffer pH 7, 1 nM papain, 2 μM substrate, activator (see Table 9), 4 mM EDTA, 0.01% Brij35 and 1 μM TCEP. For experiments with only one activator concentration of 10 μM, the transferred well buffer for each well was 368.6 μL, followed by 3.8 μL of papain, substrate and activator (1 mM in well buffer) respectively.

Experiment [3] has as its target T2, latent papain, reversibly inactivated with S-methyl methanethiosulfonate (-S-S-CH3) (Carica papaya, UniProt P00784 134-345, catalytic Cys25 blocked as mixed disulfide -S-S-CH3).
T2 sequence: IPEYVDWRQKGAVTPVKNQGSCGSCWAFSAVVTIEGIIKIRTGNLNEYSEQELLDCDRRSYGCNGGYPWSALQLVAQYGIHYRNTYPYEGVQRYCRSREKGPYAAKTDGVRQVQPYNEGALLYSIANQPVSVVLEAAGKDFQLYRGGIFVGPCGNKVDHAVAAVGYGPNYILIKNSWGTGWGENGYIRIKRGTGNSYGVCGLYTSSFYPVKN
In words: cell-based or functional assay.

[4] abbreviates: FIG. 20, concentration series 50 nM-10 μM.

“And” between values parts separate entries of the source, which are not always exact repeats. Identical values can stand only once. No end group written: not given here.

For the molecule `OCCS` [2-ME, 2-Mercaptoethan-1-ol], the “reaction rate compared to L-cysteine” value in experiment [1] is reported as 70%.

Regarding `CC(=O)Nc1ccc(S)cc1` [4-acetamidothiophenol, 4-Acetamidothiophenol], the “activator efficiency, in words” value in experiment [2] (setting [4]) was “more potent activators compared to the tripeptide”. The “rate relative to the tripeptide H2N-CLR-CONH2” value in experiment [2] (concentration series 50 nM-10 μM (FIG. 20), selenocysteine prepared with TCEP) is reported as “five times as efficient”.

In the case of `SCc1ccc(Cl)cc1` [4-chlorobenzyl mercaptan, 4-Chlorobenzyl mercaptan], the “normalized ratio rate/rate 10 μM cysteine of substrate hydrolysis after reactivation of latent papain” value in experiment [1] was 0.83.

As for `Nc1nnc(S)s1` [5-Amino-1,3,4-thiadiazole-2-thiol], the “normalized ratio rate/rate 10 μM cysteine of substrate hydrolysis after reactivation of latent papain” value in experiment [1] is “almost no papain activation potential at all”.

Take `N[C@H](CS)C(=O)O` [D-cysteine]: the “reaction rate compared to L-cysteine” value in experiment [1] came to 70%.

Regarding `N[C@@H](CCS)C(=O)O` [L-homocysteine, L-Homocysteine], the “normalized ratio rate/rate 10 μM cysteine of substrate hydrolysis after reactivation of latent papain” value in experiment [1] is listed as “lower reaction rates”.

Regarding `CC(C)(S)[C@H](N)C(=O)O` [L-penicillamine, L-Penicillamine], in experiment [1], the “normalized ratio rate/rate 10 μM cysteine of substrate hydrolysis after reactivation of latent papain” value was “lower reaction rates”.

Take `O=C(O)CCP(CCC(=O)O)CCC(=O)O` [TCEP, Tris(2-carboxyethyl)phosphine]: the “activator efficiency, in words” value in experiment [2] (setting [4]) is listed as “very little efficiency”.

As to `Sc1ccccc1` [thiophenol, Thiophenol], the “normalized ratio rate/rate 10 μM cysteine of substrate hydrolysis after reactivation of latent papain” value in experiment [1] came out at 4.86.

“H2N-C-C-R-G-CONH2 (H-CCRG-NH2; cysteine pairing not given here) [H2N—CCRG-CONH2]”: the “normalized ratio rate/rate cysteine ethyl ester (CysEE)” value in experiment [2] is “most potent activators”.

For “H2N-C-F-R-CONH2 (H-Cys-Phe-Arg-NH2) [H2N—CFR—CONH2]”, the “normalized ratio rate/rate 10 μM cysteine of substrate hydrolysis after reactivation of latent papain” value in experiment [1] is on record as “more than twice as high”.

As for “H2N-C-L-C-G-CONH2 (H-CLCG-NH2; cysteine pairing not given here) [H2N—CLCG-CONH2]”, the “normalized ratio rate/rate cysteine ethyl ester (CysEE)” value in experiment [2] is given as “most potent activators”.

Take “H2N-C-L-R-CONH2 (H-Cys-Leu-Arg-NH2) [H2N—CLR—CONH2]”: the “normalized ratio rate/rate 10 μM cysteine of substrate hydrolysis after reactivation of latent papain” value in experiment [1] is listed as “more than twice as high”. In addition, the “potency relative to (L-)cysteine” value in experiment [2] (setting [4]) is “almost four times as efficient”. In addition, the “normalized ratio rate/rate cysteine ethyl ester (CysEE)” value in experiment [2] was 1.8 and 1.81.

For the molecule “H2N-C-L-R-G-CONH2 (H-CLRG-NH2) [H2N—CLRG-CONH2]”, the “normalized ratio rate/rate cysteine ethyl ester (CysEE)” value in experiment [2] is on record as 1.29.

“H2N-C-L-R-G-COOH (H-CLRG-OH) [H2N—CLRG-COOH]”: in experiment [2], the “normalized ratio rate/rate cysteine ethyl ester (CysEE)” value is 0.51.

B1: H2N-CLRG-COOH (peptide)
peptide: H-CLRG-OH
On to B1, for which, in experiment [3], the “normalized ratio rate/rate cysteine ethyl ester after reactivation of latent papain P13 (1 nM), activator 50 nM” value was 0.51 rate/rate cysteine ethyl ester.

B2: H2N-E-G-C-G-R-G-COOH (peptide)
peptide: H-EGCGRG-OH
As for B2, in experiment [3], the “normalized ratio rate/rate cysteine ethyl ester after reactivation of latent papain P13 (1 nM), activator 50 nM” value is < 1 rate/rate cysteine ethyl ester.

B3: H2N-F-V-C-E-K-G-COOH (peptide)
peptide: H-FVCEKG-OH
As for B3, the “normalized ratio rate/rate cysteine ethyl ester after reactivation of latent papain P13 (1 nM), activator 50 nM” value in experiment [3] is < 1 rate/rate cysteine ethyl ester.

B4: H2N-G-L-C-L-R-G-COOH (peptide)
peptide: H-GLCLRG-OH
modifications: not fully specified
Regarding B4, the “normalized ratio rate/rate cysteine ethyl ester after reactivation of latent papain P13 (1 nM), activator 50 nM” value in experiment [3] is < 1 rate/rate cysteine ethyl ester.

B5: dU-triazole-PEG3-ULR dimer (21) (peptide)
peptide: X-Leu-Arg-NH2
modifications: not fully specified (residue 1, N-terminus); printed as dU-triazole-PEG3-ULR; also: diselenide dimer
In the case of B5, in experiment [3], the “normalized ratio rate/rate blank, P20 against P28” value was 2 fold of the normalized rate of P28; the “normalized ratio rate/rate blank, activator at half equimolar concentration of papain (printed 500 µM; papain 1 nM)” value is 33 fold of the background activity; the “normalized ratio rate/rate blank, activator at the lowest concentration (printed 50 µM; series starts at 50 pM)” value was 4 fold of the background activity; the “reaction rate after reactivation of latent papain (1 nM), activator 10 nM, against DTBA (9)” value is 23 fold of the rate with DTBA (9). In experiment [3], the “reaction rate after reactivation of latent papain (1 nM), activator 10 nM, against DTT” value is 159 fold of the rate with DTT; the “reaction rate after reactivation of latent papain (1 nM), activator 50 nM, against DTBA (9)” value is 9 fold of the rate with DTBA (9); the “reaction rate after reactivation of latent papain (1 nM), activator 50 nM, against DTT” value was 128 fold of the rate with DTT.

B6: H2N-G-K-C-L-R-G-COOH (peptide)
peptide: H-GKCLRG-OH
For the molecule B6, the “normalized ratio rate/rate cysteine ethyl ester after reactivation of latent papain P13 (1 nM), activator 50 nM” value in experiment [3] was < 1 rate/rate cysteine ethyl ester.

B7: H2N-CLRG-CONH2 (peptide)
peptide: H-CLRG-NH2
Take B7: the “normalized ratio rate/rate cysteine ethyl ester after reactivation of latent papain P13 (1 nM), activator 50 nM” value in experiment [3] was 1.29 rate/rate cysteine ethyl ester.

B8: H2N-G-G-C-G-G-G-COOH (peptide)
peptide: H-GGCGGG-OH
With B8, the “normalized ratio rate/rate cysteine ethyl ester after reactivation of latent papain P13 (1 nM), activator 50 nM” value in experiment [3] was < 1 rate/rate cysteine ethyl ester.

B9: H2N-CLR-CONH2 (peptide)
peptide: H-Cys-Leu-Arg-NH2
Consider B9, for which, in experiment [3], the “normalized ratio rate/rate cysteine ethyl ester after reactivation of latent papain P13 (1 nM), activator 50 nM” value is 1.81 rate/rate cysteine ethyl ester and the “reaction rate after reactivation of latent papain P13 (1 nM), concentration series 50 nM-10 uM, against free cysteine” value is ~4 fold of free cysteine.

B10: H2N-S-E-C-L-R-G-COOH (peptide)
peptide: H-SECLRG-OH
For B10, the “normalized ratio rate/rate cysteine ethyl ester after reactivation of latent papain P13 (1 nM), activator 50 nM” value in experiment [3] was < 1 rate/rate cysteine ethyl ester.

B11: H2N-CLRCG-COOH (peptide)
peptide: H-CLRCG-OH
modifications: cysteine pairing not given here
B11: the “normalized ratio rate/rate cysteine ethyl ester after reactivation of latent papain P13 (1 nM), activator 50 nM” value in experiment [3] is 0.99 rate/rate cysteine ethyl ester.
